Source: PMC6467934, “Cell-Free and Yeast-Based Production of the Malarial Lactate Transporter, PfFNT, Delivers Comparable Yield and Protein Quality” (Frontiers in Pharmacology, 2019)

Biological target: the molecule itself
Experiment: negative-stain transmission electron microscopy with class sums; purified, detergent-solubilized PfFNT (yeast-produced in DM, cell-free in Brij 78); uranyl acetate stain; reference-free alignment without any symmetry imposed

B1: Plasmodium falciparum lactate transporter PfFNT, produced in Pichia pastoris yeast (natural protein, UniProt O77389 1-309, looked up)
chain: MPPNNSKYVLDPVSIKSVCGGEESYIRCVEYGKKKAHYSNLNLLAKAILAGMFVGLCAHASGIAGGLFYYHKLREIVGASMSVFVYGFTFPIAFMCIICTGSDLFTGNTLAVTMALYEKKVKLLDYLRVMTISLFGNYVGAVSFAFFVSYLSGAFTNVHAVEKNHFFQFLNDIAEKKVHHTFVECVSLAVGCNIFVCLAVYFVLTLKDGAGYVFSVFFAVYAFAIAGYEHIIANIYTLNIALMVNTKITVYQAYIKNLLPTLLGNYIAGAIVLGLPLYFIYKEHYYNFERSKRDNNDAQMKSLSIELRN
notes: PfFNT, lactate transporter (formate-nitrite transporter family) of Plasmodium falciparum; monomer printed as 30 kDa, pentamer 150 kDa; Homopentamer; also called cell-based PfFNT; yeast-produced PfFNT; source: P. pastoris (PichiaPink), fermenter culture; membranes solubilized with LDAO, purified (Ni-NTA, size exclusion) in DM; not shown: His10, C-terminal, kept
stoichiometry N: 5

B2: Plasmodium falciparum lactate transporter PfFNT, produced cell-free in an E. coli S30 extract (natural protein, UniProt O77389 1-309, looked up)
chain: MPPNNSKYVLDPVSIKSVCGGEESYIRCVEYGKKKAHYSNLNLLAKAILAGMFVGLCAHASGIAGGLFYYHKLREIVGASMSVFVYGFTFPIAFMCIICTGSDLFTGNTLAVTMALYEKKVKLLDYLRVMTISLFGNYVGAVSFAFFVSYLSGAFTNVHAVEKNHFFQFLNDIAEKKVHHTFVECVSLAVGCNIFVCLAVYFVLTLKDGAGYVFSVFFAVYAFAIAGYEHIIANIYTLNIALMVNTKITVYQAYIKNLLPTLLGNYIAGAIVLGLPLYFIYKEHYYNFERSKRDNNDAQMKSLSIELRN
notes: PfFNT, lactate transporter (formate-nitrite transporter family) of Plasmodium falciparum; codon-optimized open reading frame in pIVEX2.3; monomer printed as 30 kDa, pentamer 150 kDa; Homopentamer; A factor Xa digestion site lies between PfFNT and the C-terminal His10-tag; no cleavage is reported; also called cell-free PfFNT; cell-free produced PfFNT; source: E. coli S30 extract cell-free system …
stoichiometry N: 5
